Results as given in patent EP1899377B1 (GLAXO GROUP LIMITED, dated 2012).
Read-outs that look alike come from different tables or passages of the source. Values belong to the binder of their own block, whether it stands above or below them.

Tests used:
GST-human NOGO-A56 [1] = biological target: T1, GST-human NOGO-A56 (human, UniProt Q9NQC3 586-785); experiment: SPR off-rate ranking, supernatant from small-scale transient transfection over immobilised GST-human NOGO-A56; single experiment
T1 construct: GST-tagged fusion expressed in E. coli BL21 from pGEX-6P1; also called hNOGO; human NOGO 5+6 GST; not shown: Glutathione S-transferase tag encoded by vector pGEX-6P1 (N-terminal, with vector linker)
T1 sequence: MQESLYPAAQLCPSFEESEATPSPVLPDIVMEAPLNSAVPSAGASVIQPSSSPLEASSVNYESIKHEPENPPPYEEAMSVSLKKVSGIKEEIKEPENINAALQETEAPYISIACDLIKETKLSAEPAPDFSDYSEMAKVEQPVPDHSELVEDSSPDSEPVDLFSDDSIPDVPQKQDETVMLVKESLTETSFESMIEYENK

GST-human NOGO-A56 [2] = biological target: T1, GST-human NOGO-A56; experiment: SPR (Biacore), GST-human NOGO-A56 immobilised, purified antibody as analyte; single experiment
GST-human NOGO-A56 [3] = biological target: T1, GST-human NOGO-A56; experiment: as above; remark: listed apart in the source
GST-human NOGO-A56 [4] = biological target: T1, GST-human NOGO-A56; experiment: as above; remark: listed apart in the source

koff (GST-human NOGO-A56 [1]): 0.00996 s⁻¹
B3: H24L13 (antibody, human IgG1, kappa, V domains shown)
VH: QVQLVQSGAEVKKPGASVKVSCKASGYTFTSYWMHWVKQRPGQGLEWIGNINPSNGGTNYNEKFKSKATLTVDTSTSTAYMELSSLRSEDTAVYYCELGQGYWGQGTLVTVSS
VL: DIVMTQSPLSLPVTLGQPASISCRSSKSLLYKDGKTYLNWFQQRPGQSPQLLIYLMSTRASGVPDRFSGGGSGTDFTLKISRVEAEDVGVYYCQQLVEYPLTFGQGTKLEIKR

koff (GST-human NOGO-A56 [1]): 0.00956 s⁻¹
B5: H23L13 (antibody, human IgG1, kappa, V domains shown)
VH: QVQLVQSGAEVKKPGASVKVSCKASGYTFTSYWMHWVKQRPGQGLEWIGNINPSNGGTNYNEKFKSKATMTVDTSTSTAYMELSSLRSEDTAVYYCELGQGYWGQGTLVTVSS
VL: DIVMTQSPLSLPVTLGQPASISCRSSKSLLYKDGKTYLNWFQQRPGQSPQLLIYLMSTRASGVPDRFSGGGSGTDFTLKISRVEAEDVGVYYCQQLVEYPLTFGQGTKLEIKR

Kd (GST-human NOGO-A56 [2]): 3.7 nM | koff (GST-human NOGO-A56 [2]): 0.0069 s⁻¹ | kon (GST-human NOGO-A56 [2]): 1.9e+06 M⁻¹ s⁻¹ | Kd (GST-human NOGO-A56 [3]): 2.49 nM | koff (GST-human NOGO-A56 [3]): 0.00572 s⁻¹ | kon (GST-human NOGO-A56 [3]): 2.3e+06 M⁻¹ s⁻¹ | koff (GST-human NOGO-A56 [1]): 0.00585 s⁻¹
B6: H24L16 (antibody, human IgG1, kappa, V domains shown)
VH: QVQLVQSGAEVKKPGASVKVSCKASGYTFTSYWMHWVKQRPGQGLEWIGNINPSNGGTNYNEKFKSKATLTVDTSTSTAYMELSSLRSEDTAVYYCELGQGYWGQGTLVTVSS
VL: DIVMTQSPLSNPVTLGQPVSISCRSSKSLLYKDGKTYLNWFLQRPGQSPQLLIYLMSTRASGVPDRFSGGGSGTDFTLKISRVEAEDVGVYYCQQLVEYPLTFGQGTKLEIKR
notes: human gamma1 mutated constant region, human kappa

koff (GST-human NOGO-A56 [1]): 0.00467 s⁻¹
B7: H22Lc (antibody, human IgG1, kappa, V domains shown)
VH: QVQLVQSGAEVKKPGASVKVSCKASGYTFTSYWMHWVKQRPGQGLEWIGNINPSNGGTNYNEKFKSKATMTRDTSTSTAYMELSSLRSEDTAVYYCELGQGYWGQGTLVTVSS
VL: DIVITQDELSNPVTSGESVSISCRSSKSLLYKDGKTYLNWFLQRPGQSPQLLIYLMSTRASGVSDRFSGSGSGTDFTLEISRVKAEDVGVYYCQQLVEYPLTFGAGTKLELKR

The remaining lines, values behind:

B1: H19L16 (antibody, human IgG1, kappa, V domains shown)
VH: QVQLVQSGAEVKKPGASVKVSCKASGYTFTSYWMHWVRQRPGQGLEWIGNINPSNGGTNYNEKFKSRATMTRDTSTSTAYMELSSLRSEDTAVYYCELGQGYWGQGTLVTVSS
VL: DIVMTQSPLSNPVTLGQPVSISCRSSKSLLYKDGKTYLNWFLQRPGQSPQLLIYLMSTRASGVPDRFSGGGSGTDFTLKISRVEAEDVGVYYCQQLVEYPLTFGQGTKLEIKR
koff (GST-human NOGO-A56 [1]): 0.00873 s⁻¹

B2: H16L18 (antibody, human IgG1, kappa, V domains shown)
VH: QVQLVQSGAEVKKPGASVKVSCKASGYTFTSYWMHWVKQRPGQGLEWIGNINPSNGGTNYNEKFKSKATLTVDKSTSTAYMELSSLRSEDTAVYYCELGQGYWGQGTLVTVSS
VL: DIVMTQDPLSNPVTLGQPVSISCRSSKSLLYKDGKTYLNWFLQRPGQSPQLLIYLMSTRASGVSDRFSGSGSGTDFTLKISRVEAEDVGVYYCQQLVEYPLTFGQGTKLEIKR
koff (GST-human NOGO-A56 [1]): 0.00566 s⁻¹

B4: H1L11 (antibody, human IgG1, kappa, V domains shown)
VH: QVQLVQSGAEVKKPGASVKVSCKASGYTFTSYWMHWVRQAPGQGLEWMGNINPSNGGTNYNEKFKSRVTMTRDTSTSTVYMELSSLRSEDTAVYYCELGQGYWGQGTLVTVSS
VL: DIVITQSPLSLPVTLGQPASISCRSSKSLLYKDGKTYLNWFQQRPGQSPQLLIYLMSTRASGVPDRFSGGGSGTDFTLKISRVEAEDVGVYYCQQLVEYPLTFGQGTKLEIKR
Kd (GST-human NOGO-A56 [2]): 22.3 nM | koff (GST-human NOGO-A56 [2]): 0.031 s⁻¹ | kon (GST-human NOGO-A56 [2]): 1.4e+06 M⁻¹ s⁻¹ | Kd (GST-human NOGO-A56 [3]): 21 nM | koff (GST-human NOGO-A56 [3]): 0.0282 s⁻¹ | kon (GST-human NOGO-A56 [3]): 1.34e+06 M⁻¹ s⁻¹ | Kd (GST-human NOGO-A56 [4]): 18.4 nM | koff (GST-human NOGO-A56 [4]): 0.0219 s⁻¹ | kon (GST-human NOGO-A56 [4]): 1.19e+06 M⁻¹ s⁻¹ | koff (GST-human NOGO-A56 [1]): 0.0196 s⁻¹

B8: H16L13 (antibody, human IgG1, kappa)
heavy: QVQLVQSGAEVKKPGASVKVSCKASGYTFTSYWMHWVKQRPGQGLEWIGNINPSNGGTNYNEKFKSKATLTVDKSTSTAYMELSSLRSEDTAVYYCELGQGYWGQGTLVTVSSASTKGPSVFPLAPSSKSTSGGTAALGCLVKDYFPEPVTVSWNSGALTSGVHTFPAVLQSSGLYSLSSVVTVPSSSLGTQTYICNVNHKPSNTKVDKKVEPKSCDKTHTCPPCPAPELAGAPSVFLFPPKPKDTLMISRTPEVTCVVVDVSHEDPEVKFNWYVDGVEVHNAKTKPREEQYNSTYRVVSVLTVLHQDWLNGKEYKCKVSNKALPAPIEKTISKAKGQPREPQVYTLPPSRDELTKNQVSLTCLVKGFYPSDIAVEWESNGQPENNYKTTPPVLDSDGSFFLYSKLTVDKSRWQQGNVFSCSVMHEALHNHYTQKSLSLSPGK
light: DIVMTQSPLSLPVTLGQPASISCRSSKSLLYKDGKTYLNWFQQRPGQSPQLLIYLMSTRASGVPDRFSGGGSGTDFTLKISRVEAEDVGVYYCQQLVEYPLTFGQGTKLEIKRTVAAPSVFIFPPSDEQLKSGTASVVCLLNNFYPREAKVQWKVDNALQSGNSQESVTEQDSKDSTYSLSSTLTLSKADYEKHKVYACEVTHQGLSSPVTKSFNRGEC
Kd (GST-human NOGO-A56 [4]): 2.53 nM | koff (GST-human NOGO-A56 [4]): 0.0121 s⁻¹ | kon (GST-human NOGO-A56 [4]): 4.76e+06 M⁻¹ s⁻¹ | koff (GST-human NOGO-A56 [1]): 0.0138 s⁻¹

B9: H21L13 (antibody, human IgG1, kappa, V domains shown)
VH: QVQLVQSGAEVKKPGASVKVSCKASGYTFTSYWMHWVRQRPGQGLEWIGNINPSNGGTNYNEKFKSKATMTRDTSTSTAYMELSSLRSEDTAVYYCELGQGYWGQGTLVTVSS
VL: DIVMTQSPLSLPVTLGQPASISCRSSKSLLYKDGKTYLNWFQQRPGQSPQLLIYLMSTRASGVPDRFSGGGSGTDFTLKISRVEAEDVGVYYCQQLVEYPLTFGQGTKLEIKR
koff (GST-human NOGO-A56 [1]): 0.012 s⁻¹
